The target in the experiment is LDL receptor (UniProt P01130). Kind of experiment: cell-based or functional assay.

This passage reports expression (transfection of 293 epithelial cells with peptide:DNA complexes), relative to wild-type apoE peptide complexes (% of wild-type apoE peptide complexes) results from patent US6344436.

Chain of LDL receptor (P01130 22-860 limits assumed): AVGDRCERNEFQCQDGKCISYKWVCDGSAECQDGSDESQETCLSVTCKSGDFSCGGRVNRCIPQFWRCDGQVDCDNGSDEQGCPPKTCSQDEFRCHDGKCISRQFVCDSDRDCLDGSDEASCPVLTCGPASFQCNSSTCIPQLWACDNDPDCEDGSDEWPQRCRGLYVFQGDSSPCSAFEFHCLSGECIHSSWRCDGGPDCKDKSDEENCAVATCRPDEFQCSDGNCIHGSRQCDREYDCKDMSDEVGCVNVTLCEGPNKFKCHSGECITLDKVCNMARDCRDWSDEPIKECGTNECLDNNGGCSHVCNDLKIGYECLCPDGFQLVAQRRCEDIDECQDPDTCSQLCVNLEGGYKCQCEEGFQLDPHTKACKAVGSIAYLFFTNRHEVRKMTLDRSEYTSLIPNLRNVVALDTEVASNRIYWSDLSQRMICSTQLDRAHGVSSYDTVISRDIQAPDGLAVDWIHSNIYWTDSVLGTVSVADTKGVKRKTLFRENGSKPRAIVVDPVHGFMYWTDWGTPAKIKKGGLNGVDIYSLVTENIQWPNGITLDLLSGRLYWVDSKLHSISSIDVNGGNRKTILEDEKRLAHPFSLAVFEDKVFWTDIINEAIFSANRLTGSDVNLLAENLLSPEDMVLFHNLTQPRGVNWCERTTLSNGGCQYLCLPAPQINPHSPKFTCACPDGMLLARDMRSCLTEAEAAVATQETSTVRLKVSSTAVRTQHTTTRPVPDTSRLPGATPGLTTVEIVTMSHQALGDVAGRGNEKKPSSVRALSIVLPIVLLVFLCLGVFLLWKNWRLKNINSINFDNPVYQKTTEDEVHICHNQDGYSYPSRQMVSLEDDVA

In turn, “distearyl-glycyl-apoE-3^129-169(Q142) (peptide)” returned an expression (transfection of 293 epithelial cells with peptide:DNA complexes), relative to wild-type apoE peptide complexes (% of wild-type apoE peptide complexes) of 5.
